The supplement of paper PMC9112550, “Optimization of the antimicrobial peptide Bac7 by deep mutational scanning” (BMC Biology, 2022)

Tested on: Escherichia coli TOP10
Assay: shrunken log2 fold change of peptide-encoding DNA abundance (4.5 h post-induction vs induction); higher = less antimicrobial activity (less host growth inhibition)
Conditions: time post-induction: 4.5 h; library: site-saturation at positions 5, 18, 19, 20
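Also: peptides expressed intracellularly from a pBAD plasmid library in pooled LB shake-flask culture, induced with 0.3% L-arabinose, DNA abundance read by NGS, three biological replicates, DESeq2 with apeglm shrinkage.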

Row | Sequence | shrunken log2 fold change
1 | RRIRYRPPRLPRPRPRPWYGPRP | -0.258
2 | RRIRGRPPRLPRPRPRPRQWPRP | 0.585
3 | RRIRSRPPRLPRPRPRPNHVPRP | -0.803
4 | RRIRPRPPRLPRPRPRPVCGPRP | 0.208
5 | RRIRWRPPRLPRPRPRPELNPRP | 0.259
6 | RRIRTRPPRLPRPRPRPTTKPRP | -0.0673
7 | RRIRLRPPRLPRPRPRPHEHPRP | -0.109
8 | RRIRKRPPRLPRPRPRPEPPPRP | 2.92
9 | RRIRMRPPRLPRPRPRPPRRPRP | 1.47
10 | RRIRTRPPRLPRPRPRPRITPRP | -0.474
11 | RRIRGRPPRLPRPRPRPDVSPRP | 0.163
12 | RRIRHRPPRLPRPRPRPQWCPRP | -0.218
13 | RRIRARPPRLPRPRPRPNHGPRP | -0.0204
14 | RRIRDRPPRLPRPRPRPLDDPRP | 0.459
15 | RRIRNRPPRLPRPRPRPAKLPRP | -0.153
16 | RRIRWRPPRLPRPRPRPTCPPRP | 0.187
17 | RRIRYRPPRLPRPRPRPMMDPRP | -0.103
18 | RRIRWRPPRLPRPRPRPCWTPRP | 0.0677
19 | RRIRFRPPRLPRPRPRPASEPRP | 0.21
20 | RRIRTRPPRLPRPRPRPSQEPRP | -0.184
21 | RRIRCRPPRLPRPRPRPPGHPRP | 0.422
22 | RRIRNRPPRLPRPRPRPNHHPRP | -0.701

Row | Sequence | shrunken log2 fold change
23 | RRIRRRPPRLPRPRPRPHYNPRP | -0.202
24 | RRIRWRPPRLPRPRPRPHCVPRP | -0.169
25 | RRIRARPPRLPRPRPRPTLLPRP | 0.286
26 | RRIRNRPPRLPRPRPRPLNMPRP | -0.636
27 | RRIRRRPPRLPRPRPRPFQGPRP | -0.0527
28 | RRIRDRPPRLPRPRPRPRIEPRP | 0.119
29 | RRIRERPPRLPRPRPRPDKAPRP | -0.0525
30 | RRIRQRPPRLPRPRPRPYYCPRP | -0.332
31 | RRIRIRPPRLPRPRPRPLTNPRP | -0.572
32 | RRIRIRPPRLPRPRPRPRNHPRP | -0.354
33 | RRIRDRPPRLPRPRPRPMYCPRP | -0.00227
34 | RRIRTRPPRLPRPRPRPVQHPRP | -0.217
35 | RRIRHRPPRLPRPRPRPPEHPRP | -0.116
36 | RRIRDRPPRLPRPRPRPYVVPRP | -0.159
37 | RRIRLRPPRLPRPRPRPLTCPRP | -0.0184
38 | RRIRTRPPRLPRPRPRPSLIPRP | -0.424
39 | RRIRMRPPRLPRPRPRPGMSPRP | -0.0593
40 | RRIRPRPPRLPRPRPRPIKKPRP | -0.00206
41 | RRIRWRPPRLPRPRPRPEDIPRP | -0.0433
42 | RRIRGRPPRLPRPRPRPTSRPRP | 0.336
43 | RRIRYRPPRLPRPRPRPFCCPRP | -0.509
44 | RRIRLRPPRLPRPRPRPVAAPRP | 0.382

Row | Sequence | shrunken log2 fold change
45 | RRIRPRPPRLPRPRPRPGWLPRP | 0.468
46 | RRIRVRPPRLPRPRPRPCDGPRP | 0.0303
47 | RRIRSRPPRLPRPRPRPPTDPRP | 0.429
48 | RRIRHRPPRLPRPRPRPPCDPRP | -0.22
49 | RRIRGRPPRLPRPRPRPVNMPRP | 0.189
50 | RRIRWRPPRLPRPRPRPRENPRP | 0.707
51 | RRIRFRPPRLPRPRPRPDRAPRP | 0.131
52 | RRIRERPPRLPRPRPRPHETPRP | -0.0135
53 | RRIRFRPPRLPRPRPRPTRVPRP | 0.616
54 | RRIRERPPRLPRPRPRPCMDPRP | -0.151
55 | RRIRQRPPRLPRPRPRPSCGPRP | 0.117
56 | RRIRNRPPRLPRPRPRPDRNPRP | -0.0291
57 | RRIRLRPPRLPRPRPRPYSIPRP | 0.0705
58 | RRIRPRPPRLPRPRPRPEVKPRP | -0.00169
59 | RRIRDRPPRLPRPRPRPANTPRP | -0.0443
60 | RRIRERPPRLPRPRPRPCSSPRP | 0.00543
61 | RRIRWRPPRLPRPRPRPGSVPRP | 0.306
62 | RRIRPRPPRLPRPRPRPEDEPRP | 0.242
63 | RRIRMRPPRLPRPRPRPPRYPRP | 1.71
64 | RRIRMRPPRLPRPRPRPDCGPRP | -0.167
65 | RRIRGRPPRLPRPRPRPGALPRP | 0.723
66 | RRIRNRPPRLPRPRPRPQKIPRP | -0.22

Row | Sequence | shrunken log2 fold change
67 | RRIRHRPPRLPRPRPRPASRPRP | 0.103
68 | RRIRQRPPRLPRPRPRPTLNPRP | 0.0729
69 | RRIRVRPPRLPRPRPRPHFLPRP | 0.187
70 | RRIRFRPPRLPRPRPRPQYFPRP | -0.416
71 | RRIRKRPPRLPRPRPRPAVDPRP | -0.0502
72 | RRIRPRPPRLPRPRPRPTYNPRP | -0.664
73 | RRIRRRPPRLPRPRPRPWNKPRP | 0.0897
74 | RRIRARPPRLPRPRPRPLCEPRP | 0.879
75 | RRIRFRPPRLPRPRPRPEVYPRP | 0.000414
76 | RRIRGRPPRLPRPRPRPSARPRP | 1.1
77 | RRIRWRPPRLPRPRPRPLTGPRP | -0.396
78 | RRIRMRPPRLPRPRPRPILIPRP | 0.0587
79 | RRIRERPPRLPRPRPRPTHYPRP | -0.312
80 | RRIRHRPPRLPRPRPRPKPKPRP | 0.231
81 | RRIRKRPPRLPRPRPRPCWQPRP | 0.154
82 | RRIRYRPPRLPRPRPRPGNKPRP | -0.292
83 | RRIRIRPPRLPRPRPRPLSQPRP | -0.111
84 | RRIRPRPPRLPRPRPRPQGNPRP | -0.146
85 | RRIRTRPPRLPRPRPRPEDRPRP | 0.0062
86 | RRIRLRPPRLPRPRPRPLENPRP | 0.0938
87 | RRIRWRPPRLPRPRPRPQFEPRP | 1.87
88 | RRIRARPPRLPRPRPRPENMPRP | 0.242

Row | Sequence | shrunken log2 fold change
89 | RRIRLRPPRLPRPRPRPSVGPRP | 0.101
90 | RRIRYRPPRLPRPRPRPHFGPRP | 0.0439
91 | RRIRGRPPRLPRPRPRPYIHPRP | -0.252
92 | RRIRERPPRLPRPRPRPRLEPRP | -0.0353
93 | RRIRLRPPRLPRPRPRPFAEPRP | 0.102
94 | RRIRLRPPRLPRPRPRPINLPRP | -0.573
95 | RRIRERPPRLPRPRPRPPFEPRP | 0.363
96 | RRIRVRPPRLPRPRPRPRANPRP | 0.384
97 | RRIRYRPPRLPRPRPRPNIVPRP | -0.224
98 | RRIRGRPPRLPRPRPRPGNWPRP | 0.541
99 | RRIRYRPPRLPRPRPRPIVVPRP | -0.414
100 | RRIRARPPRLPRPRPRPVNMPRP | -0.527
101 | RRIRWRPPRLPRPRPRPQNSPRP | 0.0838
102 | RRIRARPPRLPRPRPRPMEEPRP | -0.0115
103 | RRIRERPPRLPRPRPRPLQTPRP | 0.22
104 | RRIRNRPPRLPRPRPRPDAYPRP | 0.068
105 | RRIRCRPPRLPRPRPRPEQWPRP | 0.594
106 | RRIRYRPPRLPRPRPRPYPQPRP | -0.466
107 | RRIRKRPPRLPRPRPRPCTEPRP | 0.0485
108 | RRIRMRPPRLPRPRPRPRRMPRP | 0.73
109 | RRIRTRPPRLPRPRPRPSSKPRP | -0.201
